Assay results taken from PMC8928434, “Production of Putrescine and Cadaverine by Paucilactobacillus wasatchensis” (Frontiers in Microbiology, 2022).

Experiments:
[1] = system: Odc2_C19 (Odc2); conditions: 50 mM phosphate pH 5.5, 50 μM pyridoxal 5'-phosphate, 37°C; substrate 1-50 mM
From the text: HPLC of o-phthalaldehyde-derivatized amine product (decarboxylation), Michaelis-Menten fit on Odc2_C19 (Odc2)

[2] = substrate: NCCCC[C@H](N)C(=O)O; assay: HPLC of o-phthalaldehyde-derivatized amine product (decarboxylation), Michaelis-Menten fit; format: biochemical, Paucilactobacillus wasatchensis; conditions: 50 mM phosphate pH 5.5, 50 μM pyridoxal 5'-phosphate, 37°C, substrate 1-50 mM
From the text: HPLC of o-phthalaldehyde-derivatized amine product (decarboxylation), Michaelis-Menten fit on Odc1_Lw35 (Odc1)

Molecule: NCCCC[C@H](N)C(=O)O [L-Lysine]
- Km [1]: 20.2 mM

B1: Odc1_Lw35 (Odc1) (Paucilactobacillus wasatchensis) (protein)
chain: MKLLGIACSEEAQKYFKTTRDIIDAEKDSDFTDVAAIVLTEDDLDLINKIDETHFDIPVFLITNDAAKIDKDLRAKIYHLIDDDAKYTNMYDGEIEAAAVEYEKKMMPPFFEELQKYADEGNLSFTTPGHHAGKFFMRHPAGRWLVNYYGENLFRSDLSSSDVAVGDLLTHGGAPLSAEQHAAKVFNADKTYFVMNGTSTSNAIVTSAAVAPGDLVLFDRNNHKSSYISALENAGGIPIYLQTERNPFGFIGGISDAVFNEKHIRELIAKVDPKRAKEKRPIRLAIIELGTYDGSIYDARQVVDRIGSLCDYIQFDSAWVGYEQFIPMMKPSSPLLLDLGPEDPGILVTQSVHKQQAALSQGSQIHKKDKHIKGQKRYITHKRFNNAYMKYTSTSPFYPMYASLDVNAYLMEGKAGAEMWKNTVKLGIEARKRMLNESKLFTPFIPTVVNGKKWEDGDTEEMADNLDFWRFKKGESWHSFEGYADNQYYIDPLKVMFKTPGINMETGEYEDFGIPATILASYLREHGIVPEKSDLNSILFLLTPAETKTKLDNLVNLILRFEDLIEKDEKLENVLPHVYADNASRYRGYTIRQLCQEMHNFYKQSNAKKFQKELFQEATLPEQAMTPYAADKELIRNNAELIPLQDIVGRVALEGGLPYPPGIFVIAPGERWTESAQKYFLILQDGINQFPGFSPEIQGVYNEPQADGKVKAYGYVLDDESVIKKN
notes: full length (native 726 aa), C-terminal His-tag (pEG-His1, BamHI/SalI), E. coli BL21(DE3), Ni-TED purified
- Km [2]: 16.0 ± 1.8 mM
- kcat [2]: 3 ± 0.1 s⁻¹
